Laboratory results: paper PMC5193325, “Cytochrome c Negatively Regulates NLRP3 Inflammasomes” (PLoS ONE, 2016)

Biological target: T1, NLRP3 (NLR family, pyrin domain containing 3), endogenous (human (endogenous in THP-1), UniProt Q96P20 1-1036)
T1 construct: NLRP3, endogenous in PMA-differentiated, LPS-primed THP-1 cells; also called NLPR3; source: endogenous, lysate or cytosolic fraction of LPS-primed THP-1 macrophage cells
Assay: co-IP; NLRP3 immunoprecipitated from lysates of LPS-primed THP-1 macrophage cells, stimulated with ATP (5 mM, 1 h) or not; immunoblot for cytochrome c; lysis buffer 20 mM HEPES pH 7.4, 0.5% Triton X-100, 0.5% CHAPS, 10% glycerol; 4°C
Settings: partners not purified

T1 sequence (Q96P20 whole entry, the tested form may be a part): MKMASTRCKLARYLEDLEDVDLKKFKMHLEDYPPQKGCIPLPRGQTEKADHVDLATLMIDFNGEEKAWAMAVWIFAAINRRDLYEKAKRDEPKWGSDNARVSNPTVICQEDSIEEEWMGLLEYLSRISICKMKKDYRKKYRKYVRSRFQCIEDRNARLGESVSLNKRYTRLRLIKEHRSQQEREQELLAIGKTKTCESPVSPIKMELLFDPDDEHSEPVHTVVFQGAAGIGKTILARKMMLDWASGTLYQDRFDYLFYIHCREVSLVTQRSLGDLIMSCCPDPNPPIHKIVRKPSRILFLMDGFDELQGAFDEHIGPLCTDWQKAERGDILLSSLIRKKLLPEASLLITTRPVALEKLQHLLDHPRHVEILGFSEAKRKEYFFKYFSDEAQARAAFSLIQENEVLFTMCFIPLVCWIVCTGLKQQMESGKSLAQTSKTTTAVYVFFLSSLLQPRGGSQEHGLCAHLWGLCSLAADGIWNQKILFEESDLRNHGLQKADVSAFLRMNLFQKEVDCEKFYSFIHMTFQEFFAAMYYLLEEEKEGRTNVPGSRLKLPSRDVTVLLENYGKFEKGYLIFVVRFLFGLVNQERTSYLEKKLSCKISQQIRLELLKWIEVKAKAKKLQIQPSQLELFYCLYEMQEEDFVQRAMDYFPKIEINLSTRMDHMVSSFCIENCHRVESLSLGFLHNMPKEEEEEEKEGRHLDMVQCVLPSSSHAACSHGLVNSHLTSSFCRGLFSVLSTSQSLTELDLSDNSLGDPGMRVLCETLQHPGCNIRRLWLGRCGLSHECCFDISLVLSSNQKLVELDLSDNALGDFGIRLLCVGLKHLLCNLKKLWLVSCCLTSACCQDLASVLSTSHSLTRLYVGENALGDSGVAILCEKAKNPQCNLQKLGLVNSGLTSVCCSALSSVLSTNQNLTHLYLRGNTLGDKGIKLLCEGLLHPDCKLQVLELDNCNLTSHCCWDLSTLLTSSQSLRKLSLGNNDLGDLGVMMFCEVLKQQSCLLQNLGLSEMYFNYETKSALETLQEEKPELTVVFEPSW

B1: cytochrome c, endogenous (natural protein)
chain: not shown
notes: cytochrome c, endogenous in PMA-differentiated, LPS-primed THP-1 cells; source: endogenous, lysate or cytosolic fraction of LPS-primed THP-1 macrophage cells
B1 was tested, and the “fold more cytochrome c co-precipitated with NLRP3 after ATP against no ATP” value was roughly 3 fold.
